Target: T1, recombinant human GPNMB (human, UniProt Q14956 23-498)
T1 construct: also called GPNMB purified from HEK293 cells; GPNMB antigen
T1 sequence: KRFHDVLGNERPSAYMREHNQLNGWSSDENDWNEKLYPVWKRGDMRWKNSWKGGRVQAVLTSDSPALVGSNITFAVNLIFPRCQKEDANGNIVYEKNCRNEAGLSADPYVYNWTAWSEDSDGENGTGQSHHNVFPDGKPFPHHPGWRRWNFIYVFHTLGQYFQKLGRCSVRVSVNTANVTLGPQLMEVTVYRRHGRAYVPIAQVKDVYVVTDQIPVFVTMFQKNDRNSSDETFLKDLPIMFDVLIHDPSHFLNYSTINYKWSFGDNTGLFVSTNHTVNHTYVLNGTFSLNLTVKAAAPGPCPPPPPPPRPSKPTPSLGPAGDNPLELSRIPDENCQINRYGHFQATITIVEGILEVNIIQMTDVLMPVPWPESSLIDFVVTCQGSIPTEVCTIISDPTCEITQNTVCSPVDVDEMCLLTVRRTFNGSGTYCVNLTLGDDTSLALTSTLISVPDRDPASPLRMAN
Test: SPR, Biacore T-200; GPNMB amine-coupled on CM5 chip, bispecific antibody as analyte at 0.078 to 5 nM
Description: Quantitative binding capacity (affinity) of the purified bispecific antibody to recombinant human GPNMB was measured using Biacore T-200 (GE Healthcare, USA) that is a biosensor. GPNMB purified from HEK293 cells was fixed on a CM5 chip (GE Healthcare) using an amine-carboxyl reaction until 200 Rmax was obtained. Next, the GPNMB/CD3 bispecific antibody, which was serially diluted in HBS-EP buffer (10 mM HEPES, pH 7.4, 150 mM NaCl, 3 mM EDTA, 0.005% Surfactant P20), was allowed to bind thereto in a concentration range of 0.078 nM to 5 nM for 120 seconds, and flowed at a flow rate of 30 μL/min for 1800 seconds so that dissociation was achieved. Dissociation of the antibody bound to GPNMB was induced by flowing 10 mM glycine-HCl (pH 1.5) for 30 seconds at a flow rate of 30 μL/min (Table 2). The affinity was obtained as kinetic rate constants (Kₒₙ and Koff) and equilibrium dissociation constant (KD) using Biacore T-200 Evaluation Software (Table 3).

B1: GPNMB (SEQ ID NO: 35)/A15 (SEQ ID NO: 36) bispecific antibody (bispecific antibody, human IgG1, lambda, L234A L235A)
chain 1: not shown
chain 2: QAVVTQEPSLTVSPGGTVTLTCRSSTGAVTTSNYANWVQQKPGQAPRGLIGGTNKRAPWTPARFSGSLLGGKAALTLSGAQPEDEAEYYCALWYSNLWVFGGGTKLTVLGQPKANPTVTLFPPSSEELQANKATLVCLISDFYPGAVTVAWKADGSPVKAGVETTKPSKQSNNKYAASSYLSLTPEQWKSHRSYSCQVTHEGSTVEKTVAPTECSGGGSGGGSEGGGSEGGGSEGGGSEGGGSGGGSGEVQLVESGGGLVQPGGSLKLSCAASGFTFNTYAMNWVRQASGKGLEWVGRIRSKYNNYATYYADSVKDRFTISRDDSKNTAYLQMNSLKTEDTAVYYCVRHGNFGNSYVSWFAYWGQGTLVTVSSASTKGPSVFPLAPSSKSTSGGTAALGCLVKDYFPEPVTVSWNSGALTSGVHTFPAVLQSSGLYSLSSVVTVPSSSLGTQTYICNVNHKPSNTKVDKKVEPKSCDKTHTCPPCPAPEAAGGPSVFLFPPKPKDTLMISRTPEVTCVVVDVSHEDPEVKFNWYVDGVEVHNAKTKPREEQYNSTYRVVSVLTVLHQDWLNGKEYKCKVSNKALPAPIEKTISKAKGQPREPRVYTLPPCRDELTKNQVSLTCLVKGFYPSDIAVEWESNGQPENNYKTTPPVLVSDGSFTLYSKLTVDKSRWQQGNVFSCSVMHEALHNHYTQKSLSLSPG
notes: Expressed in Expi293F cells, then purified by Protein A and size exclusion; also called anti-GPNMB/anti-CD3 bispecific antibody; GPNMB/CD3 bispecific antibody
**Q.** With B1 as the binder, how does the Kd read?
**A.** Its Kd is 1.1 nM.
